PMC7641732, “Structural basis of prostate-specific membrane antigen recognition by the A9g RNA aptamer”

Target: human PSMA extracellular part (wtPSMA) (human, UniProt Q04609 44-750)
Assay: X-ray crystallography 2.2 A; 2-PMPA, active-site Zn2+; IC50: 20 mM Tris, 150 mM NaCl, pH 8.0, 37 C preincubation 10 min; flow cytometry: 10 mM Tris, 150 mM NaCl, pH 7.4, 0.5% fish gelatin (inhibitor preincubation 4)
Settings: protein: recombinant; tags: N-terminal Strep-FLAG; chain copies: 2; stem-loop: S1 7 bp, 4x1 internal loop, S2 4 bp, 16-nt hairpin loop

human PSMA extracellular part (wtPSMA), sequence (Q04609 44-750): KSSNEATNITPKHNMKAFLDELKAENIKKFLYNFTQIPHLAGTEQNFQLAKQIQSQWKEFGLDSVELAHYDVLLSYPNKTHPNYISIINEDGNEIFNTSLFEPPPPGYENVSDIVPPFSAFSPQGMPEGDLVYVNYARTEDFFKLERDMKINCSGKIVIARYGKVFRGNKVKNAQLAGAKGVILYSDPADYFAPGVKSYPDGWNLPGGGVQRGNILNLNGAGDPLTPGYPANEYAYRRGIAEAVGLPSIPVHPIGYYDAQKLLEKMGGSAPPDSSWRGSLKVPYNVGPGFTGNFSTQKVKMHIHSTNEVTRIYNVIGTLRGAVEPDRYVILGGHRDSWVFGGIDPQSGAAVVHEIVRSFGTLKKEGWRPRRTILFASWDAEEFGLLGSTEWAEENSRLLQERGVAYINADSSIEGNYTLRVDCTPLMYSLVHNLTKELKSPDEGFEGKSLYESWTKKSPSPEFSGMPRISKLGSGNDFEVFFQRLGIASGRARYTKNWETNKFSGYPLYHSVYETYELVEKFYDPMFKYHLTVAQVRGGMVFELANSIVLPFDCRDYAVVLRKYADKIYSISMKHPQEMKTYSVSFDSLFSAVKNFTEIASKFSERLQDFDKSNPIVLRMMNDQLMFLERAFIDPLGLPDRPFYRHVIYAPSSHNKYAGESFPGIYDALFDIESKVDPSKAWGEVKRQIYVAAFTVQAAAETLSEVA

GGGACCGAAAAAGACCUGACUUCUAUACUAAGUCUACGUUCCC (structured_RNA, 2'-deoxy-2'-fluoro on all C and U) [A9g]
binding result: binds
